doi:10.1101/2023.03.03.530962

Columns and labels:
[1] = molecular target: PICK1 (protein interacting with C-kinase 1) (UniProt Q9EP80)
Sequence of UniProt Q9EP80 (Q9EP80 whole entry): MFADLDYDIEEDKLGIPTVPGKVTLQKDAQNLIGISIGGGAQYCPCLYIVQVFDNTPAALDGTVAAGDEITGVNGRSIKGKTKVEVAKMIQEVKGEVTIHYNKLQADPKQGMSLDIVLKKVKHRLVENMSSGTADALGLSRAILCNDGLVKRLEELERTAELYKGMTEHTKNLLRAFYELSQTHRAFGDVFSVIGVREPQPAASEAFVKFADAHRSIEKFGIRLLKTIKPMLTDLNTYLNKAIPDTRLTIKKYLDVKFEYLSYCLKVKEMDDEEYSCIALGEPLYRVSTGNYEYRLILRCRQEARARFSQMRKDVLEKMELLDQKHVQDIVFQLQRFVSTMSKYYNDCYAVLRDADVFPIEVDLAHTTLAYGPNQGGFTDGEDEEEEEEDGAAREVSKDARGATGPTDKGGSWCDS

Row | stoichiometry N (GCN4-GS (yeast)) | Ki [1] | Substance
1 | 2 |  | GCN4-GS (peptide)
2 |  | 119 nM | GCN4-HWLKV (peptide)
3 |  | 548 nM | GCN4(7P14P)-HWLKV (peptide)
